Patent US9012420B2, “Aptamer for chymase, and use thereof” (Ribomic Inc., priority 2009, dated 2015)

Tests used:
[1] = biological target: T1, chymase (Homo sapiens, UniProt P23946 P23946:22-247); assay: inhibition; Suc-AAPF-MCA, 37 C, solution C; settings: tags: recombinant, expressed in yeast, SIGMA
T1 sequence: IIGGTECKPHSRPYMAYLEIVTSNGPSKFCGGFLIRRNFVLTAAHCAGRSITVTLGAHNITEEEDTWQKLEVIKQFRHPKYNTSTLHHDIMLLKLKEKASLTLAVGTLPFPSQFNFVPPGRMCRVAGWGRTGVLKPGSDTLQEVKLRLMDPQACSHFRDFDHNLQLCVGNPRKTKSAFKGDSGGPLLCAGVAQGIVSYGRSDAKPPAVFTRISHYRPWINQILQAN
Method in brief: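 Nucleic acids, serially diluted to 0.0027-2 μM before mixing, were preincubated with substrate in solution C for 5 min at 37 °C. Recombinant chymase started the reaction (final 16.7 nM or 1.67 nM; substrate 100 μM). AMC fluorescence (ex 380/em 460 nm) was followed for 5 (or 30) min; initial slope versus uninhibited velocity gave inhibition.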

[2] = biological target: T1, chymase; assay: inhibition; angiotensin I; recombinant 0.370; settings: tags: human skin mast cell, Calbiochem
Experimental: (§1) The total volume of solution for an enzyme reaction in the assay was set to 50 μL, and the reaction was performed in solution C buffer. First, 0.3-0.75 ng of chymase (recombinant, (manufactured by SIGMA) or native (manufactured by Calbiochem)) was diluted with solution C to give 5 μL thereof. Here, the recombinant is chymase expressed by yeast, and the native is chymase purified from human skin mast cell. The nucleic acid was serially diluted with solution C at a concentration of 0.0027-2 μM to give 25 μL thereof. The chymase solution (5 μL) and the nucleic acid solution (25 μL) were mixed, and the mixture was incubated at 37° C. for 5 min. […] The whole mixture was centrifuged at 4° C., 14000 rpm for 10 min, and the supernatant (30 μL) was used for the next fluorescence induction reaction.
(§2) The above-mentioned supernatant (30 μL) was added to a 96 well plate (black, manufactured by Costar), a solution (15 μL) of 2% o-phthalaldehyde (manufactured by SIGMA) in methanol and 0.3M NaOH solution (170 μL) were added to each well, and the mixture was incubated at room temperature for 10 min. […] The plate was set on a microplate reader SpectraMax190 (manufactured by Molecular device) and the fluorescence intensity was measured at an excitation wavelength of 355 nm and a fluorescence wavelength of 460 nm.

[3] = biological target: T1, chymase; assay: inhibition; angiotensin I; recombinant 0.201; settings: tags: human skin mast cell, Calbiochem
Experimental: as §1, §2

[4] = biological target: T1, chymase; assay: inhibition; angiotensin I; recombinant 0.043; settings: tags: human skin mast cell, Calbiochem; label: 5' biotin
Experimental: as §1, §2

[5] = biological target: T1, chymase; assay: inhibition; angiotensin I; recombinant 0.036; settings: tags: human skin mast cell, Calbiochem
Experimental: as §1, §2

[6] = biological target: T1, chymase; assay: inhibition; angiotensin I; recombinant 0.065; settings: tags: human skin mast cell, Calbiochem
Experimental: as §1, §2

[7] = biological target: T1, chymase; assay: inhibition; angiotensin I; recombinant 0.158; settings: tags: human skin mast cell, Calbiochem
Experimental: as §1, §2

B1: 72(6) (mixed)
mixed: GGGTTAGAUAGAGTUAAAAACCC
modifications: 2'-F U; 2'-OMe 1-3,7,8,10,13,16,17,19,20; DNA T4,T5,T14,A18,C21-C23; 5' and 3' idT
[1]
  IC50: 41 nM
[2]
  IC50: 573 nM

B2: 72(5) (mixed)
mixed: GGGTTAGAUAGAGTUAAAAACCC
modifications: 2'-F U; 2'-OMe 1-3,7,8,10,13,16,18-20; DNA T4,T5,T14,A17,C21-C23; 5' and 3' idT
[1]
  IC50: 27 nM
[3]
  IC50: 377 nM

B3: 72(8) (mixed)
mixed: GGGTTAGAUAGAGTUAAAAACCC
modifications: 2'-F U; 2'-OMe 1-3,7,10,13,16-20; DNA T4,T5,A8,T14,C21-C23; 5' and 3' idT
[4]
  IC50: 97 nM

B4: 72(1) (mixed)
mixed: GGGTTAGAUAGAGTUAAAAACCC
modifications: 2'-F U; 2'-OMe 1-3,7,10,13,16-20; DNA T4,T5,A8,T14,C21-C23; 5' and 3' idT
[5]
  IC50: 103 nM

B5: SEQ 72 (mixed)
mixed: GGGTTAGAUAGAGTUAAAAACCC
modifications: 2'-F U; 2'-OMe 1-3,7,8,10,13,16-20; DNA T4,T5,T14,C21-C23; 5' and 3' idT
[6]
  IC50: 120 nM

B6: 72(7) (mixed)
mixed: GGGTTAGAUAGAGTUAAAAACCC
modifications: 2'-F U; 2'-OMe 1-3,7,10,13,16-20; DNA T4,T5,A8,T14,C21-C23; 5' idT; 3' PEG 40 kDa
[1]
  IC50: 55 nM
[7]
  IC50: 312 nM
